Results on one variant are retold here after paper PMC7110113, “Termination of non‐coding transcription in yeast relies on both an RNA Pol II CTD interaction domain and a CTD‐mimicking region in Sen1” (The EMBO Journal, 2020).

First the molecules themselves.
B1: Nrd1 CID [S. cerevisiae] / Sen1 NIM peptide, FAM-labelled [modified: 5,6-carboxyfluorescein (FAM) on the N-terminus; 5,6-carboxyfluorescein (FAM) on the N-terminus] [S. cerevisiae] (parent complex)
chain 1: MQQDDDFQNFVATLESFKDLKSGISGSRIKKLTTYALDHIDIESKIISLIIDYSRLCPDSHKLGSLYIIDSIGRAYLDETRSNSNSSSNKPGTCAHAINTLGEVIQELLSDAIAKSNQDHKEKIRMLLDIWDRSGLFQKSYLNAIRSKCFAMD
chain 2: DDDEDDYTPSIS

This experiment covers variants of B1. Description: fluorescence anisotropy (FA); parent: 1.2e+03 nM. (Fluorescence polarisation rises when a labelled molecule tumbles more slowly, as on binding a larger partner.)
With chain 1 I130A, the Kd (commonly the free concentration of one partner at which half of the binding sites on the other are occupied at equilibrium, for simple one-to-one binding) amounted to 7.38 µM.
